Test results taken from patent US20200199533A1 (KING ABDULLAH UNIVERSITY OF SCIENCE AND TECHNOLOGY, published 2020).
One block for each molecule: values may come before it.

T1: PSGL-1, native glycoprotein from human HSPCs (KG1a, CD34^pos-BM) (human, UniProt Q14242 42-412, native glycosylation and tyrosine sulfation)
T1 construct: mature; also called P-selectin glycoprotein ligand-1
T1 sequence (looked up): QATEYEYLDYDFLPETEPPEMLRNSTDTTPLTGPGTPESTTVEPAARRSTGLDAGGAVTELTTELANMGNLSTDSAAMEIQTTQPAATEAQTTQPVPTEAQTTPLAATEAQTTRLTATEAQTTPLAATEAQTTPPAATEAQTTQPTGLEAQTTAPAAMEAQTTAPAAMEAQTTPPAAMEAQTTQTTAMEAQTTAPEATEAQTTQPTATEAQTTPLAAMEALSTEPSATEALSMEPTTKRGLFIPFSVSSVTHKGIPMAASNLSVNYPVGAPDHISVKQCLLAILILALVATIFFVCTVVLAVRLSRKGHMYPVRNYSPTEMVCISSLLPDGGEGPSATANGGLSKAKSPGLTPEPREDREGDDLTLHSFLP

B1: Recombinant P-selectin human immunoglobulin chimeric protein (Fc fusion)
chain: WTYHYSTKAYSWNISRKYCQNRYTDLVAIQNKNEIDYLNKVLPYYSSYYWIGIRKNNKTWTWVGTKKALTNEAENWADNEPNNKRNNEDCVEIYIKSPSAPGKWNDEHCLKKKHALCYTASCQDMSCSKQGECLETIGNYTCSCYPGFYGPECEYVRECGELELPQHVLMNCSHPLGNFSFNSQCSFHCTDGYQVNGPSKLECLASGIWTNKPPQCLAAQCPPLKIPERGNMTCLHSAKAFQHQSSCSFSCEEGFALVGPEVVQCTASGVWTAPAPVCKAVQCQHLEAPSEGTMDCVHPLTAFAYGSSCKFECQPGYRVRGLDMLRCIDSGHWSAPLPTCEAISCEPLESPVHGSMDCSPSLRAFQYDTNCSFRCAEGFMLRGADIVRCDNLGQWTAPAPVCQALQCQDLPVPNEARVNCSHPFGAFRYQSVCSFTCNEGLLLVGASVLQCLATGNWNSVPPECQAIPCTPLLSPQNGTMTCVQPLGSSSYKSTCQFICDEGYSLSGPERLDCTRSGRWTDSPPMCEAIKCPELFAPEQGSLDCSDTRGEFNVGSTCHFSCDNGFKLEGPNNVECTTSGRWSATPPTCKGIASLPTPGVQCPALTTPGQGTMYCRHHPGTFGFNTTCYFGCNAGFTLIGDSTLSCRPSGQWTAVTPACRAVKCSELHVNKPIAMNCSNLWGNFSYGSICSFHCLEGQLLNGSAQTACQENGHWSTTVPTCQAGPLTIQEA
B2: CD34, native glycoprotein from human HSPCs (KG1a, CD34^pos-BM, CD34^pos-UCB, CD34^pos-AML) (ligand, UniProt P28906 32-385, looked up)
chain: SLDNNGTATPELPTQGTFSNVSTNVSYQETTTPSTLGSTSLHPVSQHGNEATTNITETTVKFTSTSVITSVYGNTNSSVQSQTSVISTVFTTPANVSTPETTLKPSLSPGNVSDLSTTSTSLATSPTKPYTSSSPILSDIKAEIKCSGIREVKLTQGICLEQNKTSSCAEFKKDRGEGLARVLCGEEQADADAGAQVCSLLLAQSEVRPQCLLLVLANRTEISSKLQLMKKHQSDLKKLGILDFTEQDVASHQSYSQKTLIALVTSGALLAVLGITGYFLMNRRSWSPTGERLGEDPYYTENGGGQGYSSGPGTSPEAQGKASVNRGAQENGTGQATSRNGHSARQHVVADTEL
modifications: native glycosylation (about 120-130 kDa form); sialylated O-glycans and tyrosine sulfation are shown to matter for selectin binding
notes: mature; also called E-selL CD34

Key:
[1] = target: CD44 (HCELL), native glycoprotein from human HSPCs (KG1a, CD34^pos fraction) (human) (UniProt P16070); assay: SPR, capture of CD44 from KG1a lysate on immobilized Hermes-3, estimated from Equation 1
[2] = target: CD44 (HCELL), native glycoprotein from human HSPCs (KG1a, CD34^pos fraction) (human) (UniProt P16070); assay: SPR, capture of CD44 from KG1a lysate on immobilized Hermes-3, before normalization
[3] = target: CD44 (HCELL), native glycoprotein from human HSPCs (KG1a, CD34^pos fraction) (human) (UniProt P16070); assay: SPR, dissociation of captured CD44 from immobilized Hermes-3 during the wash after the lysate injection, s^-1 as in paragraph 58; fits the 8.6-fold ratio of paragraph 58
[4] = target: CD34, native glycoprotein from human HSPCs (KG1a, CD34^pos-BM, CD34^pos-UCB, CD34^pos-AML) (human) (UniProt P28906); assay: Stamper-Woodruff assay, CHO-P cells on CD34 immunoprecipitate from CD34^pos-BM
[5] = target: CD34, native glycoprotein from human HSPCs (KG1a, CD34^pos-BM, CD34^pos-UCB, CD34^pos-AML) (human) (UniProt P28906); assay: Stamper-Woodruff assay, CHO-P cells on CD34 immunoprecipitate from KG1a
[6] = target: CD34, native glycoprotein from human HSPCs (KG1a, CD34^pos-BM, CD34^pos-UCB, CD34^pos-AML) (human) (UniProt P28906); assay: Stamper-Woodruff assay, CHO-E cells on CD34 immunoprecipitate from CD34^pos-BM
[7] = target: CD34, native glycoprotein from human HSPCs (KG1a, CD34^pos-BM, CD34^pos-UCB, CD34^pos-AML) (human) (UniProt P28906); assay: Stamper-Woodruff assay, CHO-E cells on CD34 immunoprecipitate from KG1a
[8] = target: CD34, PNGaseF-treated (human) (UniProt P28906); assay: SPR; CD34 captured on 4H11 from PNGaseF-treated KG1a lysate; koff-apparent similar to the control
[9] = target: B2; assay: SPR, steady-state fit of consecutive P-Ig injections (labels 5.6 to 1000 under the steps) in CaCl2 over CD34 captured from KG1a lysate on 563-mAb, 150 mM NaCl; the run shown; no rise in the P-Ig/EDTA step
[10] = target: T1, PSGL-1, native glycoprotein from human …; assay: SPR; PSGL-1 captured from KG1a lysate on KPL-1-mAb; apparent association rate
[11] = target: B2; assay: SPR; CD34 captured from KG1a lysate on 563-mAb; apparent association rate
[12] = target: B2; assay: SPR; CD34 captured from KG1a lysate on 563-mAb; apparent rate constant
[13] = target: B2; assay: SPR; CD34 captured on 563-mAb against PSGL-1 captured on KPL-1-mAb
[14] = target: T1, PSGL-1, native glycoprotein from human …; assay: SPR, steady-state fit of consecutive P-Ig injections (labels 5.6 to 1000 under the steps) in CaCl2 over PSGL-1 captured from KG1a lysate on KPL-1-mAb, 150 mM NaCl; the run shown; no rise in the P-Ig/EDTA step
[15] = target: B2; assay: SPR; CD34 captured from KG1a lysate on 563-mAb, P-Ig injected, 2 mM CaCl2, 25 C; steady-state model; mean
[16] = target: T1, PSGL-1, native glycoprotein from human …; assay: SPR; PSGL-1 captured from KG1a lysate on KPL-1-mAb; apparent rate constant; exponent printed as 10^4, read as 10^-4
[17] = target: T1, PSGL-1, native glycoprotein from human …; assay: SPR; PSGL-1 captured from KG1a lysate on KPL-1-mAb, P-Ig injected, 2 mM CaCl2, 25 C; steady-state model; mean
[18] = target: T1, PSGL-1, native glycoprotein from human …; assay: CD34 immunoprecipitation, Western blot for PSGL-1 (KPL-1-mAb)
Source text: FIG. 7A is an autoradiograph of Western blots of P-Ig immunoprecipitates from KG1a and CD34^pos-BM lysates probing for CD34 (QBend-10 and EP373Y mAb) or PSGL-1 using KPL-1-mAb. Note that CD34 immunoprecipitates were free from any PSGL-1 contamination. (n=3 independent experiment). FIG. 7B is an autoradiograph of Western blots of CD34 and PSGL-1 immunoprecipitates probed with P-Ig (n=3). FIG. 7C is an autoradiograph of Western blots of E-Ig immunoprecipitates of E-sels from KG1 lysate that were eluted with 30 mM EDTA. The eluate was then immunoprecipitated with CD34-mAbs (4H11 and 581) prior to Western blot analysis with CD34, E-Ig, and P-Ig (n=2 independent experiments). FIG. 7D is a bar graph of Bound cells/field for adherent CHO-P cells. CD34 immunoprecipitates were prepared from CD34^pos-BM and KG1a lysates and spotted on glass slides to test for CHO-P binding using a Stamper-Woodruff assay. n=2 independent experiments. FIG. 7E is a bar graph of # of rolling cells per field showing Adhesion bar graph representing results obtained for the blot-rolling assay using CHO-P cell rolling at 0.25 dyne/cm² (rolling cells/field) over Western blots of immunoprecipitated CD34, CD44, CD43, or PSGL-1 from KG1a cell lysates. EDTA was used as a buffer (gray bars) or CHO-M cells (white bars). […] The resulting proteins were analyzed by Western blot for P-Ig binding.

Sequence of CD44 (HCELL), native glycoprotein from human HSPCs (KG1a, CD34^pos fraction) (human) (P16070 21-742): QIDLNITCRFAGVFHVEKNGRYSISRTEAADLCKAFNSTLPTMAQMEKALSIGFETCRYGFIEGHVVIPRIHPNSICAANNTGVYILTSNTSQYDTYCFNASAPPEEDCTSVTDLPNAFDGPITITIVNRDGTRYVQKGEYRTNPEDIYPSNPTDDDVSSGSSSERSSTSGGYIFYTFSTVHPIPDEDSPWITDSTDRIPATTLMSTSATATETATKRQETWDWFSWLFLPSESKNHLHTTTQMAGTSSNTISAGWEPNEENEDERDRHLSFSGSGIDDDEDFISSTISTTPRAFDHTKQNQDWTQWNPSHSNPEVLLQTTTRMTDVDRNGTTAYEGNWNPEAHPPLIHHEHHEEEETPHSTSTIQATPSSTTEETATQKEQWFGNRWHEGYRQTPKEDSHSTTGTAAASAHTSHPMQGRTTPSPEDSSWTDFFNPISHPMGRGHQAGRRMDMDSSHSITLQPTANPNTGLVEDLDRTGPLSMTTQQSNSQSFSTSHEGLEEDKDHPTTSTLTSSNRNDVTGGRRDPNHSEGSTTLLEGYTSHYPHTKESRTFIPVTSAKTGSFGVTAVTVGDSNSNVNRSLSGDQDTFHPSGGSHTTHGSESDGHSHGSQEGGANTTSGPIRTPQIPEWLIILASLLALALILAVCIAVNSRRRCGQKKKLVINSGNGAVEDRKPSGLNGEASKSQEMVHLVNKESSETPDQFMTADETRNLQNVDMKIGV

ligand-capturing efficiency [1]: 20.2%
RUmax at the end of the lysate injection [2]: 559 RU
koff [3]: 5e-05 s⁻¹
Molecule: CD44-mAb Hermes-3 (antibody)

bound cells per field (bound cells per field) [4]: 8
bound cells per field (bound cells per field) [5]: 41
Molecule: P-selectin expressed on CHO-P cells (receptor)

bound cells (bound cells/field) [6]: 14
bound cells (bound cells/field) [7]: 26
Molecule: E-selectin expressed on CHO-E cells (receptor)

fold reduction in RUmax against the control lysate [8]: 1.4 fold
Molecule: recombinant E-selectin human immunoglobulin chimeric protein (Fc fusion)

Molecule: B1
Kd [9]: ~0.622 µM
kon [10]: 474 M⁻¹ s⁻¹
kon [11]: 452 M⁻¹ s⁻¹
koff [12]: 0.0003 s⁻¹
fold weaker KD than P-Ig to PSGL-1 [13]: ~1.7 fold
Kd [14]: ~0.373 µM
Kd [15]: 0.621 µM
koff [16]: 0.0002 s⁻¹
Kd [17]: 0.372 µM

Molecule: B2
binding result [18]: no binding
